Molecular target: p38α (UniProt P47811)
Test: ITC
Settings: reference: native TAB1 (1-438); sites S423

“TAB1 1-438 (from UniProt Q8CF89) pS423TAB1 (1-438), genetically encoded phosphoserine” was tested, and the “binding against the reference” value was “same”.
